# How the values were obtained:
# [1] = Whole cell CADC assay in recombinant E. coli BL21(DE3); assay type: cell-based; settings: whole cells in pH7 PBS, 1 g/L trans-cinnamic acid, 12 h
# Description: (§1) Seed cultures consisting of 5 ml of LB broth containing 100 mg/L ampicillin were prepared of E. coli BL21(DE3) strains that were individually transformed with each of pTpad1-fdc1, pTpad1Sc, pTfdc1Sc, pTpdcLp, and pTpadCBs. These cultures were grown for 12 hours at 30° C. while agitating at 250 rpm. 1 mL of each culture was then used to inoculate 3×250 mL cultures flasks containing 50 mL of LB supplemented with 100 mg/L ampicillin. The culture was then grown at 30° C. while agitating at 250 rpm until it reached an OD600 of 0.6, at which point the cultures were induced by the addition of IPTG to a final concentration of 0.2 mM. Cultures were then grown for an additional 6 h. Cells were then collected by centrifuging in 50 ml Falcon tubes for 5 min at 1400×g and washed once with pH7 PBS (phosphate buffered saline) buffer. The entire cell pellet was resuspended in 10 ml pH7 PBS buffer and the appropriate substrate (trans-cinnamic acid or p-coumaric acid) added at a final concentration of 1 g/L. Enzyme activity was monitored by taking 1 mL samples from the culture at both the time of initiation as well as after 12 h of culture. All samples were then analyzed by HPLC using the methods described herein.
# [2] = Whole cell PADC assay in recombinant E. coli BL21(DE3); assay type: cell-based; settings: whole cells in pH7 PBS, 1 g/L p-coumaric acid, 12 h
# Description: as §1
molecule,measurement,setting,value
"FDC1: ferulic acid decarboxylase encoded by FDC1 of S. cerevisiae, expressed in recombinant E. coli from pTfdc1Sc (protein, listed as Saccharomyces cerevisiae) MRKLNPALEFRDFIQVLKDEDDLIEITEEIDPNLEVGAIMRKAYESHLPAPLFKNLKGASKDLFSILGCPAGLRSKEKGDHGRIAHHLGLDPKTTIKEIIDYLLECKEKEPLPPITVPVSSAPCKTHILSEEKIHLQSLPTPYLHVSDGGKYLQTYGMWILQTPDKKWTNWSIARGMVVDDKHITGLVIKPQHIRQIADSWAAIGKANEIPFALCFGVPPAAILVSSMPIPEGVSESDYVGAILGESVPVVKCETNDLMVPATSEMVFEGTLSLTDTHLEGPFGEMHGYVFKSQGHPCPLYTVKAMSYRDNAILPVSNPGLCTDETHTLIGSLVATEAKELAIESGLPILDAFMPYEAQALWLILKVDLKGLQALKTTPEEFCKKVGDIYFRTKVGFIVHEIILVADDIDIFNFKEVIWAYVTRHTPVADQMAFDDVTSFPLAPFVSQSSRSKTMKGGKCVTNCIFRQQYERSFDYITCNFEKGYPKGLVDKVNENWKRYGYK",CADC activity (trans-cinnamic acid to styrene),[1],activities on both p-coumaric and trans-cinnamic acid
same,activity on p-coumaric acid (to p-hydroxystyrene),[2],activities on both p-coumaric and trans-cinnamic acid
